A short description of this data set: label from the status in PepcDB records.

For the sequence “MPLELVVIHSYKSSDMKPYLLSAFAAILSTSAMAYDVKSGGKTSVKKDGANAYSLPATNLPMSKRLDFSVGNSFFRNPWVQAPATTDARDGLGPLFNTNGCQNCHIKDGRGHPPEKDDIHAVSMLVRLSIPAMTPKQKKAYIMDGGIPEPTYGGQLQDFALQDQTPEGKIAITYTDVPVEFKDGSKVTLRKPTLKITDLGYGDMHPDTQFSARVAPPMIGLGLLESIPDETLLKWADENDSDSDGISGKVNKVWDIEKGDFSLGRFGWKAGQPTLMQQNAAAFNGDVGLTSHLFPNENCTAKQSLCEELPNGGKPEVSQNILDFVEFYSQHLAVPIRRNVNDPDVQLGQKIFAASGCESCHKTSVKTTKRADRPALSEQLIHPYTDLLLHDMGEGLADHRPEYLANGREWRTPPLWGIGYTEEVNGHTYFLHDGRARNLMEAVLWHGGEAEQAKQNVLSLNQKERDALIAFLNSL”, the protein production entry is on record as “failed”.

Consider “MPLFSQHTARFSPDVPLEGTSSRELLKRYQPLETLATGGFGSIEICRDTHLRRRVAIKRIPLINGAGMPASDIMDVLREAHTAAMLQHPNIVQVIDFTHDTAYAYLVMEYVDGMSLAEFLHRVDGHSLTFDEAAAIADALGQALTFAHSNGVLHLDIKPANVLIDHSGNVKLTDFGMARLSSAGGFGGSRGGTIGYMPPEQLDIETGTVDERADVFALACVIYEGLCGSAPFMAATPADSLGHIIGGATYPSELIPHFPPGAESALMSALSPMPQDRPNSIEAFCDQLLAGLGSVREGRRSLEQMVGELSDDEQELDDIEPSHYEDDAIEVDPALGWAGTRWSHARDYTMRTISALTCGTFSFLLMQTAGVAALPGLVIAAIAIGAAAGLAPQIGSAISAVGFLVLMANATMQAQGILSMLPVAVIFAAAMSGWWIAWGRTETAASATLTCALALGCLTGNTFLAAGVAAGVASFWLGPASAAAATGMGALFARLATVALSAGGVLGLGNVAAALGDPLLWAAFVLVAATAAASSALLNVHAKRANQGSNLAAIAAIAVTGIGCAAASCLAHHMEIASLAAAVIAKAAVAGILSSIIVGICLYLLGYQRTYTESDLS”, for which the protein production result is given as “failed”.

For the sequence “MPLLTIGDQFPAYQLTALIGGDLSKVDAKQPGDYFTTITSDEHPGKWRVVFFWPKDFTFVCPTEIAAFSKLNDEFEDRDAQILGVSIDSEFAHFQWRAQHNDLKTLPFPMLSDIKRELSQAAGVLNADGVADRVTFIVDPNNEIQFVSATAGSVGRNVDEVLRVLDALQSDELCACNWRKGDPTLDAGELLKASA”, the protein production result was “not failed”.

“MPLPKSLKYGDTIGIYSPSSPVTYTSPKRFERAKSYLLQKGFHILEGSLTGRYDYYRSGSIQERAKELNALIRNPNVSCIMSTIGGMNSNSLLPYIDYDAFQNNPKIMIGYSDATALLLGIYAKTGIPTFYGPALVPSFGEFEPFVDDTYKYFLETLLHDQALPYNIKQPLFWSDEFINWEEKTKEKELRPNNWISVTNGQATGRVIGGNLNTIQGIWGSPYMPCIQEGDILFIEDSSKDAATIERSFSFLKINGVFDKVSGIILGKHEQFDDCGTNRKPYEILLEVLQNQRIPLLADFDCCHTHPMITMPIGVQVKMDATNKTIHILEKWKI”: the protein production entry was “not failed”.

Take “MPLSTSDNIAAVIVTHKRVELLRASLEVVAAQTHPVKWIIVVDNGCEDAVRDLLHSVAGDRGIYLPSHTNLGGAGGFAYGFLTALALGADAIWCADDDGRPEGPQVLATLIDAAVTHQLDEVSPVVCNMDDPNRLAFPLRRGLEWRRYRSELIDPNNPSDTLLPGIASLFNGALISAAAMERIGVPDLRLFIRGDEVEYHRRLVRSGLNFGTCLTTAYLHPDGSDEFKPILGGRMHTQYPASDAKRYFTYRNRGYLMNQPGMRRLLPQEYARFAWFFLIQRRDPRGFLEWFKLHQLGRSEKFERPLEHHHHHH”: the protein production result was “failed”.

For “MPLSYSSPSLSEERSDDPSKYDGDFGVPQICFCGKQLELVERLIGDQKKTFLKCPMSGQDDNYHVDKGWDLVVHEQCFCIDKRFGEHRELIQNAFKFGGDSNRLQINQIRAEIEDLKDRLDKKDAEITRLMDALGKK”, the protein production result is “failed”.

For the sequence “MPLTMLSEGKGCRIKEVRAGLELKRRLTEMGFTPSSSVRLIGCERGNLLVNVNGARYALGKGMAMKIMVEPDPCEGVELGLEHHHHHH”, the protein production result is recorded as “failed”.

On to “MPMSSPMMSDTDREDLDAILRTVLVSDKGYVETLSRATGLNGKALTDKAAFTLSRLSAVGGYDYENEALEVAGRYLAEARFTEAEAIYRQVLVSFPEKHGFNHPGYATRLNNLAEVLRATARYDEAESLYRQALEIDREALGLEHPDYGIDLLNLAGLLHDRGRYEAAEPLYREAMTIIGKVVGEEHYRYATAQNNLAGLLQDMLRFEEAEALCRQALEITSKTLGESHSVYATRLNNLAELLGTTERYGEAEPLYRQALEITQKTLGEEHPDFAIRLNNLAVLLKATGRYEEAEPLYRQALEITHRTLGEAHPDYATRLNNFAGLLDSTERYDEAEPLYRQALEICEKALGVEHPSTQTVRANLELFLSEKPD”, for which the protein production result is “failed”.

For “MPNFKSKKIKEINLPYSKDDVEFLWLAKNDNVSLIYTKVQEESFFLQIKKAQNGFVIKGDKHTKPSKIGYLQKALKIFKEGFCEDIINEAFGLKNNALIEKTPFIVDNFDELLSRLQGKIYIEIGFGSGRHLLYQAKENPNVLILGVEIYNPALTQVAKLAKAQNVNNILLIQSDARLLLSVLKSKSVEKIFLHFPVPWDKKPHRRVIGKDFCKECARVLVQNGRFELRTDSFEYFNFTLEQFLTFPAPKFSLRKNENLEISSKYEDRWKKQEKNIYDLWVWNFNQECKNYELNEFNLSSVEFSKEDLKKIEQNFKNITIKKDDFFLHFESIYKQDENLLLKVAFGAFNKPEHCYLHLDKTIDFAFKEPFKIQENIKAINELKEILKVQFKI”, the protein production result was “failed”.

Turning to “MPNNDSFYKKVLDNLYDGIYFVDEQRRITYWNKGAQMLTGYGEKEVIGRNCHDIFLHLDSNGNGICSDACPIEKTITDGRKRDEESFLHHKDGHLVPVCLRVAPIQDTDGQMVVAVEVTGDHSPRHALRQQLENLQRLALCDPLTTIANRRYVEMSLNSRLEEMRRYGWHFGILFLDVDHFKQINDTHGHDTGDRVLKMVAKTLVNSARSFDVVGRWGGEEFIAVLANISRRQLPRIADRFRHLVEQSSFRLDDRLLRVTVSVGATMSHLDDTVESLVQRADTLMYRSKQAGRNCVSIGFGEEMPETSATPSASP”, the protein production result is “failed”.

Take “MPNQVLFCITKMRYEEKRIYHYLEESGLSIKIMLDSSNLDEVVAHNSDYCLCIVRVMSQHRAFRIAEYMEALGIPTLNSSRAIQICADKAIQALILANRDVIKQPHFSILRNYEDLSNFNGKMVVKPVSSSWGRGISLIENEDALTTWKISHQELDIQNQNLPYLIQEFIDKPNYDVRIVIINTKPVVAFKRVSANNWKTNTHLGATVVPIVIDDSINKIVTEIIKVVGPGIYGLDLMKNRQNEWIFCEINQNPEFAHSWKIHHVDVAEKIAQYVSSKVKVGQKNASTHLEHHHHHH”: the protein production entry is recorded as “failed”.

Regarding “MPNTTAKKDYTKYSEKQLFNLIHQLERKIKKMQNDRISFKEKMAKELEKRDQNFKDKIDALNELLQKISQAFDDKRDCCLGHEIPNIETQQAMRDALNGINLTQIDSLDDFTNELKRENSKGFENVCFSV”, the protein production result is “failed”.

Consider “MPPMPVPIRILSVLLLVAMSASATAAPKKAPPASPPSSAGASSLEPVLAGEFALQAGQLDDAARAYLDAAKAEAGDAGLAERAARISMLANDDPRAIEALALWRARAPSSMSMRSTEASLALRRNDLRTARRDLLGLLKEPDPRGWRFALIALANGGREPEASADVLEDLVKAGAIPNQIEAWQEFGRLALRMERPALAKRIVDEVVRRFPEEPRVALLHATQLQQEGKNDEALALLKNIEPQAVKDSELRGALAFAYDAMGQTEAAARVLSTGPQDTQTYGLRASMLAKEKDRSSLEALYAELKSNATKPDPDRRLLLGKIAEFLKRYDEAVEWYRGVPGGPQLSEARLRAASALYELGRKPEALAEARALQGDASADDDARRDAYVLEAELHQRADDAPGELDAFERGLAAYPDDSALLYARGLAWERRDDVPRAEADLRKILVTEPENVAALNALGYTLADRTTRYKEALALIDRARTADPDNPAIVDSYGWVLYRMGRTKEALVQLRRAWALVKDPEIAAHVGEVLWVSGKQDEARRYFDEARRLDPDNRALQRAVEKFGL”, for which the protein production entry is listed as “failed”.

As to “MPPPAAAAGLAGRPGRGAGSRLRPAVAAAGRRAHMIRCRHGGPRLQDIRNTVGNVPLEWYDDFPHVGYDLDGRRIYKPLRTRDELDQFLDKMDDPDYWRTVQDPMTGRDLRLTDEQVALVRRLQSGQFGDVGFNPYEPAVDFFSGDVMIHPVTNRPADKRSFIPSLVEKEKVSRMVHAIKMGWIQPRRPRDPTPSFYDLWAQEDPNAVLGRHKMHVPAPKLALPGHAESYNPPPEYLLSEEERLAWEQQEPGERKLSFLPRKFPSLRAVPAYGRFIQERFERCLDLYLCPRQRKMRVNVDPEDLIPKLPRPRDLQPFPTCQALVYRGHSDLVRCLSVSPGGQWLVSGSDDGSLRLWEVATARCVRTVPVGGVVKSVAWNPSPAVCLVAAAVEDSVLLLNPALGDRLVAGSTDQLLSAFVPPEEPPLQPARWLEASEEERQVGLRLRICHGKPVTQVTWHGRGDYLAVVLATQGHTQVLIHQLSRRRSQSPFRRSHGQVQRVAFHPARPFLLVASQRSVRLYHLLRQELTKKLMPNCKWVSSLAVHPAGDNVICGSYDSKLVWFDLDLSTKPYRMLRHHKKALRAVAFHPRYPLFASGSDDGSVIVCHGMVYNDLLQNPLLVPVKVLKGHVLTRDLGVLDVIFHPTQPWVFSSGADGTVRLFT”, the protein production result is “failed”.

Turning to “MPPPTASTPDDSADPGPDFADVPPTDLVKVGFIFRPHGLDGELKIDPSATDDPARFEVLPTVFVGPHPRRVVRHDIASVRYQKTKRGITVILGLDGIVDRDDAEAVAKMDVFATEAALGLEDDELFADDLVGWTVVTEEGAVQGTVADFMEMPAQDLFVVRTPEDTEAMIPAIDDFIIEIDEEAERIVVRPIDGLMDALEHHHHHH”, the protein production entry was “failed”.

With “MPPVPGVPFRNVDNDSPTSVELEDWVDAQHPTDEEEEEASSASSTLYLVFSPSSFSTSSSLILGGPEEEEVPSGVIPNLTESIPSSPPQGPPQGPSQSPLSSCCSSFSWSSFSEESSSQKGEDTGTCQGLPDSESSFTYTLDEKVAELVEFLLLKYEAEEPVTEAEMLMIVIKYKDYFPVILKRAREFMELLFGLALIEVGPDHFCVFANTVGLTDEGSDDEGMPENSLLIIILSVIFIKGNCASEEVIWEVLNAVGVYAGREHFVYGEPRELLTKVWVQGHYLEYREVPHSSPPYYEFLWGPRAHSESIKKKVLEFLAKLNNTVPSSFPSWYKDALKDVEERVQATIDTADDATVMASESLSVMSSNVSFSE”, the protein production result is “failed”.

As for “MPQLQKEWFDTWFDTPYYHILYSNRDESEAEVFLTNLMNHMAVPKGASILDLPCGKGRHTLFLAEKGYTLTGADLSVASIALAQSHAPAGVTFLVHDLRKPAWNESFDYVLNLFTSFGYFETEAEDRAAFTTLSKALKSGGSLVIDFMNVTRAVNLLKEEETKVMEGIEFQLKRYVKDGYIHKEIRFEADNTPFFFTERVKALTLDDFKEFFTFAGLTLVDTFGSYQLDAYDAAESDRLIMIAKKLEHHHHHH”, the protein production entry was “not failed”.

Turning to “MPQTPPFPVMYGSTNGYNKNLYKAKEEDYEGLYYHDNNLISGSLEALIEHLVPTVAYYPDRTYIFTFLLSSRLFLHPYELMSKVCHLCVDQQRLSDPQADKARVRKIAPKILQLLTEWTETFPYDFRDERMMKSLKELTHRLSTGEDLYRKAVQQMTQTLIRKLTTLSQYEEALAKINSSVTDRLTVLKTKPQSIQRDILTICNDPFTLAQQLTHIELERLSYIGPEEFVQAFVQKDPLDNDKNCFSDHKKASNLEAYVEWFNRLSYLVATEICMPVKKKHRARVIEFFIDVARECFNIGNFNSLMAIITGMNMSPVSRLKKTWAKVKTAKFDILEHQMDPSSNFYNYRTALRGATQRSITAHSSREKIVIPFFSLLIKDIYFLNEGCANRLPNGHVNFEKFWGLAKQVTEFMTWKKVECPFDRDRKILQYLLTAPVFSEDALYLASYESEGPENNMEKDRWKSLRSSLLNRT”, the protein production entry is listed as “not failed”.

Values taken from a protein production outcome set (Wang et al. 2014).
